Patent US20260028421A1 (JIANGSU HENGRUI PHARMACEUTICALS, published 2026)
Where two headings read alike, the source gives them in different places.

B1: 146 L1H1-2 (bispecific antibody)
heavy 1: not shown
light 1: not shown
heavy 2: EFQLVQSGAEVKKPGASVKVSCKASGYSFTDYNMNWVRQAPGQRLEWMGLINPKYGTTNYNQKFKGRVTLTVDQSSSTAYMELSSLRSEDTAVYYCARDNYPAWFAYWGQGTTVTVSSGGGGSSGAPRFLTRPKASVVSVGKDATLSCQIVGNPFPQVSWEKDKQPVTAGVRFRLAQDGDLYRLKILDLQLSDSGQYVCRARNAHGEAFACLGLQVDAEADKTHTCPPCPAPEAAGGPSVFLFPPKPKDTLMISRTPEVTCVVVDVSHEDPEVKFNWYVDGVEVHNAKTKPREEQYNSTYRVVSVLTVLHQDWLNGKEYKCKVSNKALPAPIEKTISKAKGQPREPQVCTLPPSREEMTKNQVSLSCAVKGFYPSDIAVEWESNGQPENNYKTTPPVLDSDGSFFLVSKLTVDKSRWQQGNVFSCSVMHEALHNHYTQKSLSLSPGK
light 2: EIVLTQSPATLSLSPGERATLSCSASSSLNYMYWYQQKPGSSPRPWIYRTSQLASGVPARFSGSGSGTDYTLTISSLEPEDFAVYYCQQYHSYPPTFGGGTKVEIKGGGGSGIPPKIECLPIDISIDEGKVLTVASAFTGEPTPEVTWSTGGRKIHSQEQGRFHIENTDDSTTLTIKDVQKQDGGLYTLTLRNEFGSDSATVNIHIRSI
notes: GUCY2C-CD3, Format 2, CD3 arm S107E
B2: P3-C7 L7H1-3 (bispecific antibody)
heavy 1: not shown
light 1: DVVMTQTPLSLPVTPGEPASISCRSSQSLVHSNQNTYLHWYLQKPGQSPQLLIYKVSNRFSGVPDRFSGSGSRTDFTLKISRVEAEDVGVYYCSQSTHVPYTFGGGTKVEIKGGGGSGIPPKIECLPIDISIDEGKVLTVASAFTGEPTPEVTWSTGGRKIHSQEQGRFHIENTDDSTTLTIKDVQKQDGGLYTLTLRNEFGSDSATVNIHIRSI
heavy 2: not shown
light 2: not shown
B3: 81 L3H1-2 (N103QN106Q) (bispecific antibody)
heavy 1: not shown
light 1: not shown
heavy 2: EVQLVQSGAEVKKPGASVKVSCKASGYTFTDHNMNWVKQAPGQRLEWMGVMNPKFGTINYNQKFKDKATITRDTSASTAYMELSSLRSEDTAVYYCARDNYPNYFDYWGQGTTVTVSSGGGGSSGAPRFLTRPKASVVSVGKDATLSCQIVGNPFPQVSWEKDKQPVTAGVRFRLAQDGDLYRLKILDLQLSDSGQYVCRARNAHGEAFACLGLQVDAEADKTHTCPPCPAPEAAGGPSVFLFPPKPKDTLMISRTPEVTCVVVDVSHEDPEVKFNWYVDGVEVHNAKTKPREEQYNSTYRVVSVLTVLHQDWLNGKEYKCKVSNKALPAPIEKTISKAKGQPREPQVCTLPPSREEMTKNQVSLSCAVKGFYPSDIAVEWESNGQPENNYKTTPPVLDSDGSFFLVSKLTVDKSRWQQGNVFSCSVMHEALHNHYTQKSLSLSPGK
light 2: DIQLTQSPSFLSASPGDRVTITCSASSSVNYMYWYQQKPGSSPKSWIYRTSNLASGVPSRFSGSGSGTEYTLTISSLQPEDFATYYCQQYHDYPPTFGGGTKVEIKGGGGSGIPPKIECLPIDISIDEGKVLTVASAFTGEPTPEVTWSTGGRKIHSQEQGRFHIENTDDSTTLTIKDVQKQDGGLYTLTLRNEFGSDSATVNIHIRSI
B4: M42 CHI (antibody, human IgG1, kappa, V domains shown)
VH: QIQLKQSGPGLVQPSQSLSITCTVSGFSLTSYAVHWVRQSPGKGLEWLGVIWTGGNTRSNAAFMSRLTITKDNSKSQVFFKMNSLQADDTAIYFCAKNSLLDYAMDYWGQGTSVTVSS
VL: ENVLTQSPVIMSASPGEKVTMTCRASSFVGSGYLHWYQQKSGASPKLWIYSTSKLASGVPARFSGSGSGTSFFLTISRVEIEDAAAYYCQQSSGYPLTFGGGSKLEIKR
notes: chimeric
B5: M61 CHI (antibody, human IgG1, kappa, V domains shown)
VH: EVQLQQSGPELVRPGASVKISCTASGYTITDYYMSWVKQSHGKSPEWIGDINPNNGGTSDNQKFKGKATLTVDKSSSTAYMEYRSLTSEDSAVYYCARGRGMVARYFDIWGTGTTVTVSS
VL: EILLTQSPTTMAASPGEKITITCSASSSISSNFLHWYQEKPGFSPKLLIYRTSNLASGVPARFSGSGSGTSYSLTIGSMEAEDVATYYCQQGSGLPLTFGAGTKLELKR
notes: chimeric
B6: 1608-BsAb (bispecific antibody)
chain 1: DIQLTQSPSSLSASVGDRVTITCRASESVDYYGSSLLQWYQQKPGKAPKLLIYAASKLASGVPSRFSGSGSGTDFTLTISSLQPEDFATYYCQQTRKAYTFGQGTKLEIKGGGSGGGGEVQLVESGGGLVQPGGSLRLSCAASGFTFSDYYMTWVRQAPGKGLEWVAFIRNQARGYTSDHNPSVKGRFTISRDNAKNSLYLQMNSLRAEDTAVYYCARDRPSYYVLDYWGQGTTVTVSSGCPPCPAPEAAGAPSVFLFPPKPKDTLMISRTPEVTCVVVDVSHEDPEVKFNWYVDGVEVHNAKTKPREEQYNSTYRVVSVLTVLHQDWLNGKEYKCKVSNKALPAPIEKTISKAKGQPREPQVCTLPPSREEMTKNQVSLWCLVKGFYPSDIAVEWESNGQPENNYKTTPPVLDSDGSFFLYSKLTVDKSRWQQGNVFSCSVMHEALHNHYTQKSLSLSPG
chain 2: DIQMTQSPSSLSASVGDRVTITCTSSQSLFNVRSQKNYLAWYQQKPGKAPKLLIYWASTRESGVPSRFSGSGSGTDFTLTISSLQPEDFATYYCKQSYDLFTFGGGTKVEIKGGGGSGGGGEVQLVESGGGLVQPGGSLRLSCAASGFTFSSYWMHWVRQAPGKGLEWIGEIKPSNELTNVHEKFKDRFTISVDKAKNSAYLQMNSLRAEDTAVYYCTRTITTTEGYWFFDVWGQGTLVTVSSGCPPCPAPEAAGAPSVFLFPPKPKDTLMISRTPEVTCVVVDVSHEDPEVKFNWYVDGVEVHNAKTKPREEQYNSTYRVVSVLTVLHQDWLNGKEYKCKVSNKALPAPIEKTISKAKGQPREPQVYTLPPCREEMTKNQVSLSCAVKGFYPSDIAVEWESNGQPENNYKTTPPVLDSDGSFFLVSKLTVDKSRWQQGNVFSCSVMHEALHNHYTQKSLSLSPG

Key:
[1] = biological target: T1, hGUCY2C ECD-His (human, UniProt P25092 24-430); assay: ELISA, antigen on streptavidin plate
T1 construct: also called human GUCY2C protein
Experimental: In this test example, the binding activity of the GUCY2C-CD3 bispecific antibodies for human GUCY2C was detected by ELISA. The specific procedures are as follows:
The plate was coated by adding 100 ng of streptavidin (ACRO #STN-N5116) to the reaction wells and incubated overnight at 4° C. After the blocking with 1% BSA (PBS), 100 ng of hGUCY2C ECD-His was added, and the mixture was incubated at 37° C. for 1 h. After plate washing, the gradiently diluted antibody was added, and the mixture was incubated at 37° C. for 1 h. […] After plate washing, a substrate solution was added, and a stop solution was then added after sufficient color development to stop the reaction. The signal values at […] were read using a microplate reader.

[2] = biological target: T2, Human GUCY2C protein on cells (HCT116/hGUCY2C, HT-55, T84, LS1034, LS174T) (human, UniProt P25092 24-1073); assay: cell-based or functional assay
[3] = biological target: T2, Human GUCY2C protein on cells …; assay: cell-based or functional assay; remark: listed apart in the source
[4] = biological target: T2, Human GUCY2C protein on cells …; assay: cell-based or functional assay; remark: listed apart in the source
[5] = biological target: T1, hGUCY2C ECD-His; assay: SPR Biacore, antibody captured
From the text: To test the affinity of the GUCY2C monoclonal antibodies of the present disclosure for GUCY2C, in this test example, the instruments Biacore 8K and Biacore T200 were used to detect the ability of the antibodies to bind to hGUCY2C-ECD-His (SEQ ID NO: 3). The specific method is as follows: The antibody was affinity-captured using a Protein A biosensor chip conjugated with an anti-human antibody, then a solution containing GUCY2C Protein flowed on the surface of the chip, and reaction signals were detected in real time with an instrument to obtain association and dissociation curves. After dissociation was completed for each cycle, the biosensor chip was washed with 10 mM glycine-hydrochloric acid (pH 1.5) for regeneration. Data fitting was performed using a 1:1 model.

[6] = biological target: T2, Human GUCY2C protein on cells …; assay: flow cytometry on T84 cells, PE anti-human IgG Fc secondary antibody
[7] = biological target: T2, Human GUCY2C protein on cells …; assay: flow cytometry on HCT116/hGUCY2C cells, R-PE goat anti-human IgG secondary antibody
Experimental: Experiment 1: 1E5 cells resuspended in 1% BSA were added to the reaction wells, and the supernatant was removed after centrifugation. Diluted antibody of the corresponding concentration was added, and the mixture was incubated at room temperature for 30 min and then washed twice with 1% BSA. […] After the plate was washed twice with 10% BSA, fluorescence signals were read using a flow cytometer.

Binder	EC50 [1]	Kd [5]	koff [5]	kon [5]	EC50 (read off the curve) [6]	further results
B1	0.06 nM					IC50 (nM), killing of HT-55(++) with PBMC [2]: 0.56 nM; IC50 (nM), killing of LS174T(+) with PBMC [2]: 0.49 nM; IC50 (nM), killing of LS1034(+++) with PBMC [2]: 0.17 nM
B2						IC50 (nM), killing of LS174T with PBMC [3]: 0.49 nM
B3						IC50 (nM), killing of LS174T with PBMC [4]: 0.16 nM
B4		8.99 nM	0.000335 s⁻¹	37300 M⁻¹ s⁻¹	~0.5 nM	
B5		4.49 nM	0.000228 s⁻¹	50800 M⁻¹ s⁻¹	~2 nM	
B6	1.23 nM					EC50 (read off the curve) [7]: ~1 nM
